Test system: MS2 coat protein
Experiment: apparent KD of MS2 coat protein; designed switch direction (-1 OFF switch, 1 ON switch): 1; higher = weaker reporter binding
Summary of the method: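 The apparent KD reported per design is the median over clusters of curve fits to normalised cluster fluorescence. The RNA switches were transcribed on Illumina chips by stalled E. coli RNA polymerase. SNAP-549-labelled MS2 coat protein was titrated from 0.7 or 1.5 nM, doubling up to 3 µM, in Tris-HCl pH 7.5 buffer containing KCl, MgCl2, BSA, DTT, tRNA and Tween-20, with no input, 200 uM small-molecule ligand, or an oligonucleotide input.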

[1] = input ligand: microRNA oligo, concentration not stated
[2] = Eterna round: R95, input ligand: FMN 200 uM
[3] = Eterna round: R95, input ligand: microRNA oligo, concentration not stated
[4] = Eterna round: R95, input ligand: none

Sequence | apparent KD of MS2 coat protein (input ligand: FMN 200 uM) [nM] | apparent KD of MS2 coat protein [1] [nM] | apparent KD of MS2 coat protein (input ligand: none) [nM] | apparent KD of MS2 coat protein [2] [nM] | apparent KD of MS2 coat protein [3] [nM] | apparent KD of MS2 coat protein [4] [nM]
AGCUAUUACGAAGGAUAUUGUGACAUGAGGAUCACCCAUGUUUUCAUGAUUUAUUGUGAUCACGUCGAGAAGGUUGUACUAACA [SameState NG2 #29] (Eterna round: R96, puzzle: Same State NG 2) | 59.2 | 50.8 | 51.8 | – | – | –
ACGCAGCUGGGCAAGGAUAUCGGUGGUAAAACAUGAGGAUCACCCAUGUCCGAAGCUCGGACUUCCGAGAAGGUGCCCGGCUGCG [Soinraesar Omei Mod 8] (puzzle: Same State 2) | – | – | – | 20.1 | 119 | 238
UGGUACAUGGGAGGAUAUCUCAUGGUGACAUGAGGAUCACCCAUGUAGUUGGAGCCGAAAGGCAGAGAGAAGGCCCAUGUACCU [JL SSNG1 3.77] (Eterna round: R96, puzzle: Same State NG 2) | 69.2 | 65.7 | 96.3 | – | – | –
GGUGGGUUGCUGCCGGCACAUGAGGAUCACCCAUGUUUUGGGAAGGAUAUGGUCCCUCUUUGGUGCCAGAAGGUCCCGUUGGUC [salish99_SSNG3_r04_715] (Eterna round: R96, puzzle: Same State NG 3) | 232 | 75.3 | 165 | – | – | –
CGGCUCCGUGGAGGAUAUGGGCCUGCCCGGGAUAACGGGCCUAACACAUGAGGAUCACCCAUGUCCCAGAAGGCCGCUGGAGCC [Enineseson] (Eterna round: R96, puzzle: Same State NG 2) | 14 | 39.1 | 54.4 | – | – | –
GGAGCCGGCACCGAGGAUAUUCAUAUUAAAACAUGAGGAUCACCCAUGUACCGCAGAAGCGGUUGGGAGAAGGCGGAUCGGCUCG [Xeonanis - 23] (puzzle: Same State 2) | – | – | – | 33 | 271 | 730
GGUGGCGAAAGCGACAUGAGGAUCACCCAUGUCAUCGGAGGGCAGGAUAUCCGGCGAAAGCCGAAGGAGAAGGGUCGAAAAGAA [ssng3v2 b] (Eterna round: R96, puzzle: Same State NG 3) | 62.4 | 25.8 | 43.6 | – | – | –
GGAGCCGGCACCGAGGAUAUUCAUAUUAAAACAUGAGGAUCACCCAUGUAGAGGAGAACCUCUUGGGAGAAGGCGGAUCGGCUCG [Xeonanis - 26] (puzzle: Same State 2) | – | – | – | 289 | 723 | 1090
AUGAAGAAUUAAGGAUAUUGAUUACAUAUGUUUAACAUGAGGAUCACCCAUGUGGGUUGCGGUAUCGAGAAGGUAAAUUAAAAG [Mat - same State NG 2 - JL mod - D88] (Eterna round: R96, puzzle: Same State NG 2) | – | 156 | – | – | – | –
GUAGCAUACCGAGGAUAUUCAUAAAAUAAAUAAACAUGAGGAUCACCCAUGUGGCGAAAGCCUUGGGAGAAGGCGGAAUGCUAC [Xeonanis - 20 Mod73] (Eterna round: R96, puzzle: Same State NG 2) | 20 | 370 | 359 | – | – | –
UGUAUACAUGAGGAUCACCCAUGUCAACGUAGUCGAGGAUAUGGGCAGCCGUGAGGCGUACUAGAAGGCGAAGAGG [JL-ss1-3.06 ViennaUCT mod] (puzzle: Same State 1) | – | – | – | – | 116 | –
UGUUGUUAAUUAGGAUAUGGUCACAUGAGGAUCACCCAUGUAAUGUCGAUGCUAUGUGGACACGAUCAGAAGGAAUGGCUAACA [SameState NG2 #93] (Eterna round: R96, puzzle: Same State NG 2) | 21.3 | 69.7 | 102 | – | – | –
CCGGAUAAUGGAGGAUAUGGAGCCUUAUUGGCUCCAGAAGGCUAACAUGAGGAUCACCCAUGUAGUCCGGCGGUCAAUAGACCG [Eli NG1ss - 67] (Eterna round: R96, puzzle: Same State NG 1) | 10.9 | 11.5 | 21.6 | – | – | –
GUAAAACAUGAGGAUCACCCAUGUCAACAAAGUCGAGGAUAUGGGCAAAUAAAAUAAGAACCAGAAGGCGAAUAAG [salish99_SS1_r3_009] (puzzle: Same State 1) | – | – | – | 44 | 703 | 1290
GCAGUACUAGCAGAGGAUAUGUCGAUAACGACAUGAGGAUCACCCAUGUGUACGGAAGUACUCAGACAGAAGGCUGAGUACUGCU [Same State 2 - Hyphema v.2] (puzzle: Same State 2) | – | – | – | 15.2 | 30.2 | 41.8
GUGGUGUAGAUACAGGAUAUGUUGCUCGUAACAUGAGGAUCACCCAUGUAUCUAUGAGAUAAAAUGCAGAAGGGUGCACACCACU [Mat - Same State 2 - Mod of UCT - D75] (puzzle: Same State 2) | – | – | – | – | 245 | –

Sequence | apparent KD of MS2 coat protein (input ligand: FMN 200 uM) [nM] | apparent KD of MS2 coat protein [1] [nM] | apparent KD of MS2 coat protein (input ligand: none) [nM] | apparent KD of MS2 coat protein [2] [nM] | apparent KD of MS2 coat protein [3] [nM] | apparent KD of MS2 coat protein [4] [nM]
UGGAUCUAGGCUUGCCUGGGUCCAUGCUGACAUGAGGAUCACCCAUGUGCAUCCUACAAGCUUUUUGCUUGUCAGUU (puzzle: Sensor for hsa-mir-208a) | – | – | – | 232 | 166 | 135
UUAAUAAUGAUAGGAUAUACAUGAGGAAUUCUCGUAGAAGGAUCAUGACAUGAGGAUCACCCAUGUAACGCUCCGUAGAGCGUA [Mat - Same State NG 1 - JL mod - D36] (Eterna round: R96, puzzle: Same State NG 1) | 413 | 321 | 447 | – | – | –
GAGCCAGUCCGAGGAUAUUCAUAUUAACACAUGAGGAUCACCCAUGUAGGCUCAGAAGAGCCUUGGGAGAAGGCGGACUGGCUC [SS-NG2-LRO14] (Eterna round: R96, puzzle: Same State NG 2) | 35.2 | 227 | 311 | – | – | –
CCUGACAUGAGGAUCACCCAUGUAGGGAAACAAUGACAUAUGGAGGAUAUACACCCGAAAGGCGCGUAGAAGGUCACAUGUCCA [Eternabot solution 5] (Eterna round: R96, puzzle: Same State NG 3) | 10.7 | 10.8 | 13 | – | – | –
UCUUGGUUUUUGCUCGUUUUUUGUGUUGAACAUGAGGAUCACCCAUGUAUUGUACAGUCCAGUUUAAUAAUGGUCCG [JMF 55] (puzzle: Sensor for hsa-mir-208a) | – | – | – | 36.9 | 25.6 | 38.1
GUGGUCAGACAUGAGGAUCACCCAUGUGGAAUAAAUAAGGAGAAGGAUAUGGAAUAUAGGAUAUACCAGAAGGUUUGGUUGGUG (Eterna round: R96, puzzle: Same State NG 3) | – | 90.5 | – | – | – | –
GUCGGCCUGUCGUGCUGAGGUGAUAGUUAACAUGAGGAUCACCCAUGUUGCUGUCGGGUCGUUGGGAGUUUUCUUCG [Modxample 117 - Jieux - Sensor for bsa-mir-208a] (Eterna round: R96, puzzle: Sensor for hsa-mir-208a) | 71.2 | 50.8 | 62.4 | – | – | –
UGGUACAUGGGAGGAUAUCAUGUAGAAACAUGAGGAUCACCCAUGUAGUUGGCAGCUUUGCUGAAUGAGAAGGCCCAUGUACCU [JL SSNG1 3.59] (Eterna round: R96, puzzle: Same State NG 2) | 20.6 | 19.5 | 26.7 | – | – | –
GUAGCAUACCGAGGAUAUUCAUUACAUGAGGAUCACCCAUGUUUAUUAUAGGCCAAAAGGCCUUGGGAGAAGGCGGAAUGCUAC [Xeonanis - 20 Mod12] (Eterna round: R96, puzzle: Same State NG 2) | 8.36 | 8.47 | 10.7 | – | – | –
UGGUACAUGGGAGGAUAUCAUGCAGACAUGAGGAUCACCCAUGUAGCCAUGGAGACAUGGGUAUAUGAGAAGGCCCAUGUACCU [JL SSNG1 3.53] (Eterna round: R96, puzzle: Same State NG 2) | 145 | 37.7 | 207 | – | – | –
GGAGCUGUUAUAGGAUAUCCCGCGCAUUACGCGGGAGAAGGGUGACGCUCACAUGAGGAUCACCCAUGUGGCGUUCCAAAAUAA [Rate] (Eterna round: R96, puzzle: Same State NG 1) | 11.8 | 8.12 | 12.4 | – | – | –
GCAGGACAUGAGGAUCACCCAUGUUCAAAAUAUAGAGGAUAUGGAUACGGUAUAUCCGAACCAGAAGGCUACCUGC [SS1 Teenbexe 23] (puzzle: Same State 1) | – | – | – | – | 13.7 | –
GGUCCGGCCUGAGCUGGACCGAAGCAUGUACAUGAGGAUCACCCAUGUCAUGUACAGGCUUCUUGCUCGUCUUGUUG [JL-shm-2.15 JL Mod] (puzzle: Sensor for hsa-mir-208a) | – | – | – | 90.3 | 16.6 | 219
AAUUAAGAUUGAGGAUAUCACGUCGAAUAGACGUGAGAAGGCGAUCAUAACAUGAGGAUCACCCAUGUAUUACAUGAAUUAAUU [SSNG1/5-B1] (Eterna round: R96, puzzle: Same State NG 1) | 30.2 | 31.9 | 32.3 | – | – | –
GUGAAGAAUUAAGGAUAUUGAAUACAUAUGUUUAACAUGAGGAUCACCCAUGUGGGUUGCGGUAUCGAGAAGGUAAAUUACUAG [salish99_SSNG2_r04_031] (Eterna round: R96, puzzle: Same State NG 2) | 95.5 | 89.9 | 118 | – | – | –
AGUUGUGGGAAACUAUAGCAGACGCUCGUACAUGAGGAUCACCCAUGUCUUGUAGGAGCUGUUUGCUCGUUUUAUGG [ak 1 mod of one Eli's designs.] (puzzle: Sensor for hsa-mir-208a) | – | – | – | 62.8 | 50.1 | –

Reference: the supplement of paper PMC9170038
